Measurements taken from patent US20110207628A1 (UNIVERSITY OF MIAMI, published 2011).

Experiments:
[1] = molecular target: T1, tubby-N (N-terminus of mouse tubby, 1M-242P), GST-free (mouse, UniProt P50586 1-242); experiment: clonal phage on immobilized tubby-N, plaque assay
T1 construct: range 1-242; Expressed as GST-tubby-N in E. coli BL21(DE3), GST removed by 3C protease cleavage; also called GST-free tubby-N
T1 sequence (looked up): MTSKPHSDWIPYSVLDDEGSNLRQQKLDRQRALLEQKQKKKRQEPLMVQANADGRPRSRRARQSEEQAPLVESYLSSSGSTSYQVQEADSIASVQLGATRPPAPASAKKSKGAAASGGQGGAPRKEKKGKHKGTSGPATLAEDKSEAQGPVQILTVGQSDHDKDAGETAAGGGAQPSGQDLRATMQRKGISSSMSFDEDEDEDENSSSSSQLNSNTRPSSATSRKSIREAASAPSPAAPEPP

[2] = molecular target: T2, FLAG-tubby-F (full-length mouse tubby with N-terminal FLAG tag) (mouse, UniProt P50586 1-505); experiment: clonal phage on immobilized FLAG-tubby-F, plaque assay
T2 construct: mature; also called FLAG-tagged tubby; tubby-vesicles
T2 sequence: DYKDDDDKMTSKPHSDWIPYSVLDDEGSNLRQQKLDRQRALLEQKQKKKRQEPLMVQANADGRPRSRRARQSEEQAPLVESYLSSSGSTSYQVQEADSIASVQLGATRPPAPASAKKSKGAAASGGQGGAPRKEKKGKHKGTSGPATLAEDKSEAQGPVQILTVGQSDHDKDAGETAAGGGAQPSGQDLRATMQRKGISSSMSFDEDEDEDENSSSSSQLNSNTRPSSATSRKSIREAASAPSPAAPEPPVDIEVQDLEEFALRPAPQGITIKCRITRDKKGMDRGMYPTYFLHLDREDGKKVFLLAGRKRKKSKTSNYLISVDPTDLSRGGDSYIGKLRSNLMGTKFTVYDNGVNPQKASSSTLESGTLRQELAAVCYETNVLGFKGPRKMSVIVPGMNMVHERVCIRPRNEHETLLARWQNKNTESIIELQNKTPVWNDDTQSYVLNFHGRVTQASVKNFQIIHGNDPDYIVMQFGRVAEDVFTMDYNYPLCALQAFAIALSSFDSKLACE

[3] = molecular target: T3, Axl-Fc (Axl extracellular domain fused to human IgG1 Fc fragment) (human); experiment: clonal phage on immobilized Axl-Fc, plaque assay
T3 construct: extracellular domain; Bought (R&D Systems)

[4] = molecular target: T2, FLAG-tubby-F (full-length mouse tubby …); experiment: GST pull-down: GST-tubby with lysate of cells expressing the FLAG-tagged protein, glutathione resin, Western blot with anti-FLAG mAb
[5] = molecular target: T4, FLAG-tagged Tulp2 (full-length mouse Tulp2 with N-terminal FLAG tag) (mouse, UniProt P46686 1-562); experiment: as above
T4 construct: mature; Expressed from pcDNA3 in Neuro-2a cells; used as cell lysate or on membrane vesicles
T4 sequence: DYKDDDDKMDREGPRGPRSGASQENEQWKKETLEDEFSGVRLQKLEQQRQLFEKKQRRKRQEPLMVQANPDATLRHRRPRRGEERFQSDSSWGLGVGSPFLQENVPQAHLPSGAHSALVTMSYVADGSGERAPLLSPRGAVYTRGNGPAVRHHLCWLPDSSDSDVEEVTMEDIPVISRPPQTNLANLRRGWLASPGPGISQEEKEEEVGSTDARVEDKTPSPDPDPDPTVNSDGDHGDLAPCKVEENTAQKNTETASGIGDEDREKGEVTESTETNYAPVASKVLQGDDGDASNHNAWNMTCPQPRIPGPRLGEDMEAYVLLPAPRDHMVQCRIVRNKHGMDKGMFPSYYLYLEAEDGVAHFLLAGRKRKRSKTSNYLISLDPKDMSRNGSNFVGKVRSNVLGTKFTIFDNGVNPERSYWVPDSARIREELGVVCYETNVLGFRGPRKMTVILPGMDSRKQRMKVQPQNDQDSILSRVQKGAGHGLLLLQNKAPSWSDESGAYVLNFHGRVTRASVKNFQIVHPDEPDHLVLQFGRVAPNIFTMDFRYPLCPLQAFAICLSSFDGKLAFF

T3 sequence (P30530 whole entry, the tested form may be a part): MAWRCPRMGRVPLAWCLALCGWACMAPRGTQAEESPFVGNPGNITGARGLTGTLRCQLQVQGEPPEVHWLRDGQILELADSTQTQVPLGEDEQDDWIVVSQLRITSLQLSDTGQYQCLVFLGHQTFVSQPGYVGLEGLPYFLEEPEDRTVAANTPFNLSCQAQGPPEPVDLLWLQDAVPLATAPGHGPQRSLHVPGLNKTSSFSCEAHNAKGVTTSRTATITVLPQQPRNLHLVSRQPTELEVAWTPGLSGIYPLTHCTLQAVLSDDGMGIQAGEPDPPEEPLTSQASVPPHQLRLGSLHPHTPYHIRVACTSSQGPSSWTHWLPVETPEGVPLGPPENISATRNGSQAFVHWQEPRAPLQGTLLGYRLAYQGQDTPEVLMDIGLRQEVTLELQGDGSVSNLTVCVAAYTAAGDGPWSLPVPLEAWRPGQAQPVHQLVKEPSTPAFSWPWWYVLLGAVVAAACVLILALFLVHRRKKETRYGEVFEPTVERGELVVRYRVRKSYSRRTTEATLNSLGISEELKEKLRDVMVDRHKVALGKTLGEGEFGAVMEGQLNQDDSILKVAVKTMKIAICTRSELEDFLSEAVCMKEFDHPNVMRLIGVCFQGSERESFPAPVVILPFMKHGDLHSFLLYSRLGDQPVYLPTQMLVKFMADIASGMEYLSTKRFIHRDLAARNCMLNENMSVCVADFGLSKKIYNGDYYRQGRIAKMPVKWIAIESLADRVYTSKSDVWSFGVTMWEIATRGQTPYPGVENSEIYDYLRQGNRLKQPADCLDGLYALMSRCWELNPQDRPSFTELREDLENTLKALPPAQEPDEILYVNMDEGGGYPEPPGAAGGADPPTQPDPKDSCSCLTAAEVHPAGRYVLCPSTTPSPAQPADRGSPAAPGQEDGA

B1: CCCTC-binding factor (Ctcf) 136G-400T, phage clone (other, mouse, UniProt Q61164 136-400, looked up)
chain: GAYENEVSKEGLAESEPMICHTLPLPEGFQVVKVGANGEVETLEQGELPPQEDSSWQKDPDYQPPAKKTKKTKKSKLRYTEEGKDVDVSVYDFEEEQQEGLLSEVNAEKVVGNMKPPKPTKIKKKGVKKTFQCELCSYTCPRRSNLDRHMKSHTDERPHKCHLCGRAFRTVTLLRNHLNTHTGTRPHKCPDCDMAFVTSGELVRHRRYKHTHEKPFKCSMCDYASVEVSKLKRHIRSHTGERPFQCSLCSYASRDTYKLKRHMRT
notes: range 136-400; For Y2H recloned into pGAD424
[1]
  Binding to tubby-N (binding specificity of clonal phage vs. control phage): ~117 X (fold)
[2]
  Binding to tubby-F (binding specificity to FLAG-tubby-F vs. to GFP-FLAG): ~44.9 X (fold)

B2: PH181: SPRY domain containing 3 (Spryd3) 31I-215S, phage clone (other, mouse)
chain: IREIREVRAFRYQERFKHILVDGDTLSYHGNSGEVGCYVASRPLTKDSNYFEVSIVDSGVRGTIAVGLVPQYYSLDHQPGWLPDSVAYHADDGKLYNGRAKGRQFGSKCNSGDRIGCGIEPVSFDVQTAQIFFTKNGKRVGSTIMPMSPDGLFPAVGMHSLGEEVRLHLNAELGREDDSVMMVDS
notes: range 31-215; Frequency 8
[3]
  Binding activity (pfu ratio of clonal phage binding to immobilized Axl-Fc versus blank): ~1e+06 X (fold)

B3: ATP-binding cassette F1 (Abcf1) 57K-196G, phage clone (other, mouse, UniProt Q6P542 57-196, looked up)
chain: KLQKEKEQQQQQQQQKKKRDTRKGRRKKDVDDDSDERVLMERLKQLSVPASDEEDEVPAPIPRGRKKAKGGNVFEALIQDDSEEEEEEEENRVLKPAKPEKNRINKAVAEEPPGLRSKKGKEEKSKGKAKSKPAAADSEG
notes: Minimal overlap of 2 independent clones; For Y2H recloned into pGAD424
[1]
  Binding to tubby-N (binding specificity of clonal phage vs. control phage): ~68.2 X (fold)
[2]
  Binding to tubby-F (binding specificity to FLAG-tubby-F vs. to GFP-FLAG): ~27.2 X (fold)

B4: PH194: Growth arrest specific 6 (Gas6) 43Q-148R, phage clone (ligand, mouse, UniProt Q61592 43-148, looked up)
chain: QRRAYQVFEEAKQGHLERECVEEVCSKEEAREVFENDPETEYFYPRYQECMRKYGRPEEKNPDFAKCVQNLPDQCTPNPCDKKGTHICQDLMGNFFCVCTDGWGGR
notes: range 43-148
[3]
  Binding activity (pfu ratio of clonal phage binding to immobilized Axl-Fc versus blank): ~40 X (fold)

B5: PH207: Microfibrillar-associated protein IA or IB (Mfap1) 160K-290E, phage clone (other)
chain: KNEEMEVMEVEDEGRSGEESESESEYEEYTDSEDEMEPRLKPVFIRKKDRVTVQEREAEALKQKELEQEAKRMAEERRKYTLKIVEEETKKELEENKRSLAALDALNTDDENDEEEYEAWKVRELKRIKRE
notes: Frequency 4; not shown: T7 capsid 10B fusion partner, linker/3C cleavage site and C-terminal biotinylation tag of the phage display construct
[3]
  Binding activity (pfu ratio of clonal phage binding to immobilized Axl-Fc versus blank): ~36700 X (fold)

B6: Microtubule-associated protein 7 (Mtap7) 23A-114R, phage clone (other, mouse, UniProt O88735 23-114, looked up)
chain: ASDGYKVQEKRTAPSRPTSTVSGQTSNHSGNKPDPPPVLRVDDRQRLARERREEREKQLAARETVWLEREERARQHYERHLEARKKKLEDQR
notes: range 23-114; For Y2H recloned into pGAD424
[1]
  Binding to tubby-N (binding specificity of clonal phage vs. control phage): ~3.5 X (fold)
[2]
  Binding to tubby-F (binding specificity to FLAG-tubby-F vs. to GFP-FLAG): ~3.8 X (fold)

B7: PC4 and SFRS1 interacting protein 1 (Psip1) 152K-219K, phage clone (other, mouse, UniProt Q99JF8 152-219, looked up)
chain: KAEKQVDTEEAGMVTAATASNVKASPKRGRPAATEVKIPKPRGRPKVVKQPCPSDGDMVIDEDKSKKK
notes: range 152-219; Minimal overlap of 4 independent clones; For Y2H recloned into pGAD424
[1]
  Binding to tubby-N (binding specificity of clonal phage vs. control phage): ~196 X (fold)
[2]
  Binding to tubby-F (binding specificity to FLAG-tubby-F vs. to GFP-FLAG): ~24 X (fold)

B8: IQ motif containing GTPase activating protein 2 (Iqgap2) 1232E-1368E, phage clone (other, mouse, UniProt Q3UQ44 1232-1368, looked up)
chain: EKSDLLNELLESLGEVPTVESFLGEGAVDPNDPNKENTLNQLSKTEISLSLTSKYDVKDGEAVDGRSLMIKTKKLIIDVTRNQPGSTLTEILETPATGQQELEHAKDMESRAVVDSRTPEEGKQSQAVIEDARLPLE
notes: range 1232-1368
[1]
  Binding to tubby-N (binding specificity of clonal phage vs. control phage): ~53.2 X (fold)
[2]
  Binding to tubby-F (binding specificity to FLAG-tubby-F vs. to GFP-FLAG): ~1.8 X (fold)

B9: GST-tubby-F (GST fused to full-length mouse tubby) (other, UniProt P50586 1-505, looked up)
chain: MTSKPHSDWIPYSVLDDEGSNLRQQKLDRQRALLEQKQKKKRQEPLMVQANADGRPRSRRARQSEEQAPLVESYLSSSGSTSYQVQEADSIASVQLGATRPPAPASAKKSKGAAASGGQGGAPRKEKKGKHKGTSGPATLAEDKSEAQGPVQILTVGQSDHDKDAGETAAGGGAQPSGQDLRATMQRKGISSSMSFDEDEDEDENSSSSSQLNSNTRPSSATSRKSIREAASAPSPAAPEPPVDIEVQDLEEFALRPAPQGITIKCRITRDKKGMDRGMYPTYFLHLDREDGKKVFLLAGRKRKKSKTSNYLISVDPTDLSRGGDSYIGKLRSNLMGTKFTVYDNGVNPQKASSSTLESGTLRQELAAVCYETNVLGFKGPRKMSVIVPGMNMVHERVCIRPRNEHETLLARWQNKNTESIIELQNKTPVWNDDTQSYVLNFHGRVTQASVKNFQIIHGNDPDYIVMQFGRVAEDVFTMDYNYPLCALQAFAIALSSFDSKLACE
notes: mature; Expressed in E. coli BL21(DE3) from pGEX-2T; not shown: glutathione S-transferase of pGEX-2T (Schistosoma japonicum)
[4]
  binding result: no binding
[5]
  binding result: no binding

B10: Structure specific recognition protein 1 (Ssrp1) 486E-619G, phage clone (other, mouse, UniProt Q08943 486-619, looked up)
chain: EEEEDVAEEFDSNASASSSSNEGDSDREEKKREQLKRAKMAKDRKSRRKSSEAKKGKDPNAPKRPMSAYMLWLNASREKIKSDHPGISITDLSKKAGEIWKGMSKEKKEEWDRKAEDARREYEKAMKEYEGGRG
notes: range 486-619; Minimal overlap of 2 independent clones; For Y2H recloned into pGAD424
[1]
  Binding to tubby-N (binding specificity of clonal phage vs. control phage): ~157 X (fold)
[2]
  Binding to tubby-F (binding specificity to FLAG-tubby-F vs. to GFP-FLAG): ~4.5 X (fold)

B11: Tubby like protein 1 (Tulp1) 125D-243E, phage clone (other, mouse, UniProt Q9Z273 125-243, looked up)
chain: DDDEEEEEKKEGKKEKSSLPPKKAPKEREKKAKALGPRGDVGSPDAPRKPLRTKKKEVGEGTKLRKAKKKGPGETDKDPAGSPAALRKEFPAAMFLVGEGGAAEKGVKKKGPPKGSEEE
notes: range 125-243; For Y2H recloned into pGAD424
[1]
  Binding to tubby-N (binding specificity of clonal phage vs. control phage): ~49 X (fold)
[2]
  Binding to tubby-F (binding specificity to FLAG-tubby-F vs. to GFP-FLAG): ~29.1 X (fold)

B12: Zinc finger protein 609 (Zfp609) 1M-183E, phage clone (other, mouse, UniProt Q8BZ47 1-183, looked up)
chain: MSLSSGACGGKGVDANPVETYDSGDEWDIGVGNLIIDLDADLEKDQQKLEMSGSKEVGIPAPNAVATLPDNIKFVTPVPGPQGKEGKSKSKRSKSGKDASKPTPGTSLFSPSEGAASKKEVQGRAGDGASAGGLVAAVAPKGSEKAAKASRSVAGSKKEKENSSSKGKKERSEGVGTCSEKDP
notes: range 1-183; Minimal overlap of 2 independent clones; For Y2H recloned into pGAD424
[1]
  Binding to tubby-N (binding specificity of clonal phage vs. control phage): ~53.2 X (fold)
[2]
  Binding to tubby-F (binding specificity to FLAG-tubby-F vs. to GFP-FLAG): ~2.3 X (fold)

B13: High mobility group box 2 (Hmgb2) 89K-188E, phage clone (other, mouse, UniProt P30681 89-188, looked up)
chain: KKDPNAPKRPPSAFFLFCSENRPKIKIEHPGLSIGDTAKKLGEMWSEQSAKDKQPYEQKAAKLKEKYEKDIAAYRAKGKSEAGKKGPGRPTGSKKKNEPE
notes: range 89-188; Minimal overlap of 5 independent clones; For Y2H recloned into pGAD424
[1]
  Binding to tubby-N (binding specificity of clonal phage vs. control phage): ~312 X (fold)
[2]
  Binding to tubby-F (binding specificity to FLAG-tubby-F vs. to GFP-FLAG): ~21.7 X (fold)

B14: Zinc finger E-box binding homeobox 1 (Zeb1) 903E-1021E, phage clone (other, mouse, UniProt Q64318 903-1021, looked up)
chain: EHTGKRPHECGICRKAFKHKHHLIEHMRLHSGEKPYQCDKCGKRFSHSGSYSQHMNHRYSYCKRGAEDRDAMEQEDAGPEVLPEVLATEHVGARASPSQADSDERESLTREEDEDSEKE
notes: range 903-1021; Residues are the minimal overlap of 2 independent clones; For Y2H the insert was recloned into pGAD424
[1]
  Binding to tubby-N (binding specificity of clonal phage vs. control phage): ~284 X (fold)
[2]
  Binding to tubby-F (binding specificity to FLAG-tubby-F vs. to GFP-FLAG): ~28.7 X (fold)
